A short description of this data set: yeast display, Sf9 membrane polyspecificity reagent, FACS + sequencing; frameworks hold sequencing errors. In short, it runs like this: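 Synthetic nanobody libraries on Saccharomyces cerevisiae BJ5465 were galactose-induced for 36–48 hours, stained 1 hour at 4 °C with 10% biotinylated, detergent-solubilized Sf9 membrane reagent and enriched on streptavidin microbeads. FACS then separated cells into low and high (top ~1%) gates by anti-HA (expression) and streptavidin (reagent binding) fluorescence. Genes were colony-PCR amplified, MiSeq 2 × 250 sequenced and CDR-length filtered. A clone's polyreactivity label is that of its gate of origin.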
In the case of “QVQLVESGGGLVQAGGSLRLTCAASGLTFYYYAMGRYRQATGKETELVASISTGGKKYYADSVKGRFTISRDNANNTVYLQMNSLKPEDTAVYYCAADRYDSSQFYYWGQGTQLTVSS”, the “polyreactivity (PSR sort gate)” value is listed as “low polyreactivity”.

Take “QVQLVESGGGLVQAGGSLRLTCAASGNIFDLYAMGWYRQAPGTERELVASITSDGITYYADSVKGRFTISRDNAKNTVYLQMNSLKPEDSAVYYCAVVRSYRYLPRGDYWGQGTQVTVSS”: the “polyreactivity (PSR sort gate)” value is “low polyreactivity”.

On to “QVQLVESGGGLVQAGGSLRLTCAASGNNYLDNAMGWYRQAPGKERELVASITRSGSRTYYADSVKGRFTISRDNAKNTGYFQMNSLKPEDTAVFYCNAGVNERQYDYWGLGTQVTVSS”, for which the “polyreactivity (PSR sort gate)” value is “high polyreactivity”.

Regarding “QVQLVESGGGLVQAGGSLRLTCAASGRIFFYYSMGWYRQAPGKERELVAAIRSGGSTNYADSVKGRFTISRDNAKNTVYLQMYILKPEDTAGYYSAAHPTRYYTPRYYYWGLGTQVTVSS”, the “polyreactivity (PSR sort gate)” value is “high polyreactivity”.

Take “QVQLVESGGGLVQAGGSLRLTCAASGRIFGRNTMGWYRQAPGKEMELVAAISSSGGSTRYADSVKGRFTISRDNAKNTVYIQMNSLKPEDTALYYCAAVRNRHGYDYWGKGTQVTVSS”: the “polyreactivity (PSR sort gate)” value is given as “high polyreactivity”.

Consider “QVQLVESGGGLVQAGGSLRLTCAASGRIFITNAMGWYSQAPGKEREMVAVISYIGGRTYYADSVKGRFTISRDNAKNTVYLQMNSLKPEDTAVYYCAARRSRPTYYSTGVNYWGQGTQVTVSS”, for which the “polyreactivity (PSR sort gate)” value is “high polyreactivity”.

In the case of “QVQLVESGGGLVQAGGSLRLTCAASGRIFIYYAMGWYRQAPGKERELVAAISWGGGRTYYADSVKGRFTISRDNAKNTVYLQMNSLKPEDTAVYYCAAGVYTGQHEYDYWGQGTQVTVSS”, the “polyreactivity (PSR sort gate)” value is “low polyreactivity”.

For the sequence “QVQLVESGGGLVQAGGSLRLTCAASGRIFLINPMGWYRQAPGKDRELVAGIRGRTGSTNYADSVKGRFTISRDNAKNTVYLQMNRLKPEDTAVYYCAARFSVQDGGPYAYDYWGQGTQVTVSS”, the “polyreactivity (PSR sort gate)” value is listed as “low polyreactivity”.

Take “QVQLVESGGGLVQAGGSLRLTCAASGRIFNIYAMGWYRQAPGKERELVAAISVSGTRTYYADSVKGRFTISRDNAKNTVYLHMNSLKPEDTAVYYCAADSYGGVWTEHMYYWGQGTQVTVSS”: the “polyreactivity (PSR sort gate)” value is given as “low polyreactivity”.

Take “QVQLVESGGGLVQAGGSLRLTCAASGRIFRTYAMGWYRQAPGKERELVAAISGRGGNTYYADSVKGRFTISRDNAKNTVYLQMNSLKPEDTAVYYCAASKPSRDTQQRWVYAGYDYWGQGTQVTVSS”: the “polyreactivity (PSR sort gate)” value was “high polyreactivity”.

Take “QVQLVESGGGLVQAGGSLRLTCAASGRIFSANAMGWYRKAPGKERELVATISTGGGRTYYADSVKGRFTISRDYAKNTVYLQMNSLKAEDTAVYYCNDTGNYARFLYYSWCQGTQVTVSS”: the “polyreactivity (PSR sort gate)” value is listed as “high polyreactivity”.

“QVQLVESGGGLVQAGGSLRLTCAASGRIFSANAMGWYRLAPGKERELVAGIDSGGSTNYADSVKGRFTISGDNAKNTVYLQMNSLKPEDTAVYYCAKYRGRGNTYNGGYDYWGQVTQVTVSS”: the “polyreactivity (PSR sort gate)” value is “low polyreactivity”.

For “QVQLVESGGGLVQAGGSLRLTCAASGRIFSHNTMGWYRQAPGKERELVAAISGGGGRTYYADSVKGRFTISRDNAKNTVYLQMKSLKPEDTAVYYCAAVRVSYRSLSKSYYWGQGTQVTVSS”, the “polyreactivity (PSR sort gate)” value is on record as “high polyreactivity”.

Turning to “QVQLVESGGGLVQAGGSLRLTCAASGRIFTRYAMGWYRQAPGKERELVAAISYGGGGTYYADSVKGRFTISRDNAKNTVYLQMNSLKPEVTSVYYCAADPGYYSWGSSQDDYWGQGTQVTVSS”, the “polyreactivity (PSR sort gate)” value is reported as “low polyreactivity”.

As for “QVQLVESGGGLVQAGGSLRLTCAASGRIFYGYTMGWYRKAPGKERELVAAITRRGGRTYYADSVKGRFTISRDNAKNTVYLQMNCLKPEDTAVYYCAATRSGEYDYWGQGTQVTVSS”, the “polyreactivity (PSR sort gate)” value is reported as “high polyreactivity”.

For the sequence “QVQLVESGGGLVQAGGSLRLTCAASGRIIIGYVMGWYRQAPGKERELVATISYSGGSTYADSVKGRFTISRDNAKNTVYLQMNSLKPEDTAVYYCAARPYYRYYRYPYGYWGQGTQVTVSS”, the “polyreactivity (PSR sort gate)” value is given as “high polyreactivity”.

Consider “QVQLVESGGGLVQAGGSLRLTCAASGRILGYNDMGWYRHAPGKERELVPTSSGTSTYYADSVKGRFTISRDNAKNTVYLQMNSLKPEVTAVYYCNTDYVITLPAYDYWGQGTQVTVSS”, for which the “polyreactivity (PSR sort gate)” value is reported as “low polyreactivity”.

On to “QVQLVESGGGLVQAGGSLRLTCAASGRILLVNAMGWSRQAPGKERELVAAITSGGSTNYADSVKGRFTISRDNAKNTVYFQMNSLKPEDTAVYFCAATITLYRSRGRYGYWGQGTQVTASS”, for which the “polyreactivity (PSR sort gate)” value is on record as “high polyreactivity”.

Turning to “QVQLVESGGGLVQAGGSLRLTCAASGRILTCYAMGWYRQEPGKERELVASINWRGGSTYYADSVKGRFTISRDNAKNTVYLQMNSLKPEDTAGYYCARYKYTRQTRVEYGYWGQGTQVTVSS”, the “polyreactivity (PSR sort gate)” value was “high polyreactivity”.

In the case of “QVQLVESGGGLVQAGGSLRLTCAASGRILVSYSMGWYRQAPGKERELVAAISRSGGSTYYADSVKGRFTISRDNAKNTVYLQMNSLKPEDTAVYYWNVYRFSRYDYWGQGTQVTVSS”, the “polyreactivity (PSR sort gate)” value is given as “high polyreactivity”.

For the sequence “QVQLVESGGGLVQAGGSLRLTCAASGRSFRRYAMGWYREAPGKERELVAAITWRGSSTYYADSVKGRFTISRDNAKNTVYLQMNSLKPEDTAVYYCAADIGYTYEYYYWGQGTQVTLSS”, the “polyreactivity (PSR sort gate)” value is “high polyreactivity”.

As for “QVQLVESGGGLVQAGGSLRLTCAASGRTFIVYAMGWYRQAPGKERELVAGITRGSTNYADSVKGRFTISRDNAKNTVYLQMNSLKPEDTAVYYCATEVYIWPWGTVYAFEYDYWGQGTQVTVSS”, the “polyreactivity (PSR sort gate)” value was “high polyreactivity”.

With “QVQLVESGGGLVQAGGSLRLTCAASGRTFNPYAMGWYRQAPGKERELVARIRGTGVSTYYADSVKGRFTISRDYAKNTVYLQMNSLKPEDTDVYYINAVATPVSDRWSYLSHGWYYYWGHGTQVTVSS”, the “polyreactivity (PSR sort gate)” value is given as “high polyreactivity”.

Regarding “QVQLVESGGGLVQAGGSLRLTCAASGRTFNVNVMGWSRQAPGKERELVAAIRYTGGSTYADSVKGRFTISRDNAKNTVYLQMNSLKPEDTAVYYCNADTFFPFDHGMDYWGQGTQVTVSS”, the “polyreactivity (PSR sort gate)” value is recorded as “low polyreactivity”.

Take “QVQLVESGGGLVQAGGSLRLTCAASGRTFRANAMGWYRQATGKERELVAAISQRGGNTYYADSVKGRFTSSRDNAKNTVYFQMNSLKPEDTAVYYCAADITTYRRGRYEYEYWGQGTQVTVSS”: the “polyreactivity (PSR sort gate)” value is recorded as “high polyreactivity”.

On to “QVQLVESGGGLVQAGGSLRLTCAASGRTFRPYDMGWYRQAPGKQRELVATITTNGGSTYYADSVKGRFTISRDNAMNTVYLQMTSLKPEDTAGYYCATDNSWPTYHYDGGYYWGQGTQVTVSS”, for which the “polyreactivity (PSR sort gate)” value was “low polyreactivity”.

In the case of “QVQLVESGGGLVQAGGSLRLTCAASGRTFRSYTMGWYRQAPGKERELVAAISGSGGRTYYADYVKGRFTISRDNAKNNVYLQMNILKPEDTADYYCNKGFTDYHYYYWGQGTQVTVSS”, the “polyreactivity (PSR sort gate)” value is listed as “high polyreactivity”.

In the case of “QVQLVESGGGLVQAGGSLRLTCAASGRTFWRYGMGWYRPAPVKETELVAAITDSVDSTNYADSVKGRFTISRDNAKNTVYLQMNSLKPEDTAVYYCAASDVVFALNGYYPGEDDYWGQGTQVTVSS”, the “polyreactivity (PSR sort gate)” value is “low polyreactivity”.

Turning to “QVQLVESGGGLVQAGGSLRLTCAASGRTFYFYTMGWYRQAPGKERELVATITWRGGRTYYADSVKGRFTITRDNAKNTVYLQMNSLKPEDTAVYYCNADYASYRHRMDYWGQGTQVTVSS”, the “polyreactivity (PSR sort gate)” value is on record as “high polyreactivity”.

For “QVQLVESGGGLVQAGGSLRLTCAASGRTFYVYAMGWYRQAPGKERELVAAITRSGDSTYADSVKGRFTISRDNAKNTVYLQMNSLKPEDTAVYYCSKRYTHYSFRRFDYWGQGTQVTVSS”, the “polyreactivity (PSR sort gate)” value is “low polyreactivity”.

The values above are taken from the nanobody polyreactivity screen of Harvey et al. (2022).
